Test results published in US20210403593A1 (TIZONA THERAPEUTICS, published 2021).
Substitutions are numbered along the chain they refer to.

Tests used:
[1] = molecular target: T1, Chimera #13 (Homo sapiens (Human), UniProt P49961 1-510); assay: FACS on CHO cells; human CD39 with mouse D99 and T154
T1 construct: Expressed on CHO cells
T1 sequence: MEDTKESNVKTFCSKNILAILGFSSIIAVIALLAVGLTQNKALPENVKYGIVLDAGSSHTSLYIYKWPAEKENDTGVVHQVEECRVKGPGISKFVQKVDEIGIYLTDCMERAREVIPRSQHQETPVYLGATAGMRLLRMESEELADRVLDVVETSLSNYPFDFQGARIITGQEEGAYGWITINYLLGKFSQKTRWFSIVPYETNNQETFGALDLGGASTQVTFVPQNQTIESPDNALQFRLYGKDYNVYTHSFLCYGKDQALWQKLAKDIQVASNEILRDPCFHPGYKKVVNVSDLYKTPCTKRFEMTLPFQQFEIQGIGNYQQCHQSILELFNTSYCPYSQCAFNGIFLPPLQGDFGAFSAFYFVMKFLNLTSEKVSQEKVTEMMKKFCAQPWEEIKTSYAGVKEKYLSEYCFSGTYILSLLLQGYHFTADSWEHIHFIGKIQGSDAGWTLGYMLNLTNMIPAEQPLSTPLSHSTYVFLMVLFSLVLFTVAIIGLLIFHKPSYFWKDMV

[2] = molecular target: T2, Chimera #2 (human, UniProt P49961 1-510); assay: FACS on CHO cells; human M1-E142 + mouse Q143-S158 ([..]) + human Y159-V510
T2 construct: Expressed on CHO cells; also called human-mouse Chimera #2
T2 chain: T1 sequence with D99N, E143Q, L144S, R147E, D150A, V151A, E153S, S157K, N158S

[3] = molecular target: T3, human CD39 (cellular) (human, UniProt P49961 1-510); assay: flow cytometry, 100 nM IgG, MFI on CHO-hCD39 / MFI on parental CHO;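 also: cells exposed to IgG for 30 min on ice in PBS, bound antibody then revealed with a fluorescent goat anti-human IgG secondary (20 min, on ice)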
T3 construct: Same protein on engineered CHO cells and on cells that express it endogenously; also called hCD39; cellular CD39
T3 sequence: T1 sequence with D99N, T154R

[4] = molecular target: T4, Chimera #4 (Homo sapiens (Human), UniProt P49961 1-510); assay: FACS on CHO cells, 15 ug/ml; human M1-S274 + mouse GGV + human L278-V510
T4 construct: Expressed on CHO cells
T4 chain: T1 sequence with D99N, T154R, N275G, E276G, I277V

[5] = molecular target: T5, cynomolgus macaque (Macaca fascicularis) CD39 (Macaca fascicularis, UniProt P49961 7-510 (human entry)); assay: flow cytometry, 100 nM IgG, MFI on CHO-cCD39 / MFI on parental CHO;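 also: antibodies bound to the cells for 30 min in PBS, then bound IgG was revealed with a fluorescent goat anti-human IgG secondary antibody, 20 min on ice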
T5 construct: On engineered CHO cells and on primary cyno B cells and monocytes; also called cyno CD39; cCD39
T5 chain: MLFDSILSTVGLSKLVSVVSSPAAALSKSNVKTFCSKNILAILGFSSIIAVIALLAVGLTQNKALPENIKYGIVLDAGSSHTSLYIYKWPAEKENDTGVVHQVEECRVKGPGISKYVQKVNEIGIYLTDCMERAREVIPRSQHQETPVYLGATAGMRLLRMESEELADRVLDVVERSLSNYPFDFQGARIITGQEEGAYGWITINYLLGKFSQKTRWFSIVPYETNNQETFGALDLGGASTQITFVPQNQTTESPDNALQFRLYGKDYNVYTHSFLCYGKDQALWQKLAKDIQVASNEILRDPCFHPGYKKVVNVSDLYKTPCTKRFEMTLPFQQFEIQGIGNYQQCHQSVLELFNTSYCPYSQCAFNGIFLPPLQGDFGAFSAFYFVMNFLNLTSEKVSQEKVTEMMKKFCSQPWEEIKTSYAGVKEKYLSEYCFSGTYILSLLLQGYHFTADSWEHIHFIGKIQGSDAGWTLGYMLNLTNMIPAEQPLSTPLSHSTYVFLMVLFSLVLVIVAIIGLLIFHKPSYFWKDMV

B1: 31901 (antibody, human IgG4 S228P, kappa, V domains shown)
VH: QVQLVQSGAEVKKPGSSVKVSCKASGGTFSSLPISWVRQAPGQGLEWMGGIGFGTANYAQKFQGRVTITADESTSTAYMELSSLRSEDTAVYYCARGGAKYAGRYGMDVWGQGTTVTVSS
VL: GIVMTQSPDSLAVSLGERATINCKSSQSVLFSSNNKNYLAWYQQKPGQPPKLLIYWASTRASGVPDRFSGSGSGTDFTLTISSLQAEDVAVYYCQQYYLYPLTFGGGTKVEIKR
binding result [1]: no binding (tested: 15 ug/ml)
binding result [2]: no binding (tested: 15 ug/ml)
Cell Binding (FOB) [3]: 1110 fold over background
binding result [4]: binds
Cell Binding (FOB) [5]: 4660 fold over background

B2: 31905 (antibody, human IgG4 S228P, kappa, V domains shown)
VH: B1 VH with S30P, L32N, P33A, G103R, R104T
VL: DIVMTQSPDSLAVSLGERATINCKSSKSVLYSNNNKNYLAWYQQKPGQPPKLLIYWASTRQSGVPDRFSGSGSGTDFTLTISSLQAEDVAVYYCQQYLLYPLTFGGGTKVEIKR
binding result [1]: no binding (tested: 15 ug/ml)
binding result [2]: no binding (tested: 15 ug/ml)
Cell Binding (FOB) [3]: 1080 fold over background
binding result [4]: binds
Cell Binding (FOB) [5]: 4940 fold over background
